To fix the notation:
B1: CsSCPL14-IA (Camellia sinensis var. sinensis) (protein)
chain: SVDDSELFYYFIESEGNPQEDPLFLWLTGGPGCTSFSGLLYEVGPMEYDIDNYTGGLPKLKYYPYARTKTASMIFLDAPVGTGFSYARTPGGWPTSDTKSAEQSYQFLRKWLVEHPQFLSVQLFVGGDSYAGLTVPLITKKIIDGNKEKAKPYMNIKGYLVGCPGTDSVIDGNSRVDFAHRMALISDEIYENAKRSCNENYINVDPANTACITAMGAIQKCLKDLSDKDILKPKCDLSSQDHPEGPDRRFLKEGSSEFLLSPSTFPKPWCTTLKLTHNSIWANDDGVQEALHVRKGTVPRWERCNNSLSYTQDVLSVIAVHKELSRSSLEVLVERFFIFFLLLPAANRPSLPSRPPDNLTHHS
notes: N-terminal 50 residues (transmembrane region) deleted, Met inserted; His-tag (pDEST17); E. coli; nickel resin, partially purified; full protein 413 residues, 46 kD
B2: CsSCPL11-IA (Camellia sinensis var. sinensis) (protein)
chain: ELPFKLETGYALIYIRVNESELFYYFIESQGNPQEDPIFLWLPGGPGCSSFHELVYGFGMVKILIVKTASIIFLDAPVGTGFSYSRTADGWPTSDSKSAEQSYQFLREWFDEHPQYLAVQLFVGKGNKDGVKPFMNLKGYLLGSPRTDSVIDENSKVVFAHRMALISDEIYENAKTGCNDTYVSIDPANTACIVALGNIKTCIKDLFRNDILEPKCVFATPDPGEEPAARRSLEEGPSDFLLSPPMIPNLWCRNFNYVLSYIWSNDDTVQEVLHVRKGSVLNWERCNKSLSYTKDILTVVPVHEELKELGLEVLVETGDRDMVVPFVGTVKWIKSLNLTVVNDWRPWFVDGQVAGYTIKYSEHGYRLTYATVKGAGHTAPEYYRMECYYMFDRWIHYYPI
notes: N-terminal 50 residues (transmembrane region) deleted, Met inserted; His-tag (pDEST17); E. coli; nickel resin, partially purified; full protein 450 residues, 51 kD
B3: CsSCPL13-IA (Camellia sinensis var. sinensis) (protein)
chain: MVQVEAIAASQKQLLQKPSCAWIRWVQNHLLLQLLLAQPVLGGQIVKYLPGFDGELPFKLETGQLKSDDGFVVDFDRYISVDDSELFYYFIESEGNPQEDPLFLWLTGGPGCTSFSGLLYEVGPMEYDIDNYTGGLPKLKYYPYARTKTASMIFLDAPVGTGFSYARTPGGWPTSDTKSAEQSYQFLRKWLVEHPQFLSVQLFVGGDSYAGLAVPLITKKIIDGNKEKAEPYMNIKGYLVGCPGTDSVIDGNSRVDFAHRMALISDEIYENAKRSCNENYINVDPANTACITAMGAVQKCLEDLSDKDILKPKCDLSSQDHPEGPDRRFLKEGSSEFLLSPSTFPKSWCTTLKLTHNSIWANDDGVQEALHVRKGTVPRWERCNNSLSYTKDVSSVIAVHKELSRSSLEVLVESGDHDISVPYMGTLKWIKSLNLTLVDDWRPWFVDNQVAGYTMKYSEEHGYHLTFATIKGAGHPAPEYYRRECYCLFDRWINYNPV
notes: full length, His-tag (pDEST17); E. coli; nickel resin, partially purified; 498 residues, 56 kD

Substrate in one data set: Oc1cc(O)c2c(c1)O[C@H](c1cc(O)c(O)c(O)c1)[C@H](O)C2
Briefly: purified protein. Particulars: 0.4 mM PGG as donor, potassium phosphate pH 6.0, 30 °C.
Turning to B1, the Km (commonly the substrate concentration at which the rate is half of its maximum) was 103.38 ± 15.63 µM; the Vmax (in general, the top rate of the reaction or transport when substrate is in excess) is 62.5 µmol/min/mg; the kcat (commonly the number of substrate molecules converted per active site and unit of time at saturation) was 1040 s⁻¹; the kcat/Km – broadly, the second-order rate constant that governs catalysis at low substrate concentration – was found to be 1.01e+07 M⁻¹ s⁻¹.
The matching figures for B2: 40.67 ± 5.56 µM, 13.2 µmol/min/mg, 219 s⁻¹ and 5.39e+06 M⁻¹ s⁻¹.
In the case of B3, the Km is 49.73 ± 8.36 µM, the Vmax worked out at 20.4 µmol/min/mg, the kcat was found to be 340 s⁻¹ and the kcat/Km worked out at 6.84e+06 M⁻¹ s⁻¹.

Substrate in a further data set: O=C(OC[C@H]1O[C@@H](OC(=O)c2cc(O)c(O)c(O)c2)[C@H](OC(=O)c2cc(O)c(O)c(O)c2)[C@@H](OC(=O)c2cc(O)c(O)c(O)c2)[C@@H]1OC(=O)c1cc(O)c(O)c(O)c1)c1cc(O)c(O)c(O)c1
In words: HPLC galloyltransferase assay, Lineweaver-Burk. In kind it is biochemical, Camellia sinensis. The settings on record: 1.0 mM EGC as acceptor, potassium phosphate pH 6.0, 30 °C.
Take B1: the Km stood at 20.81 ± 3.51 µM, the Vmax was 10.6 µmol/min/mg, the kcat amounted to 177 ± 22.8 s⁻¹ and the kcat/Km is 8.52e+06 ± 1.38e+06 M⁻¹ s⁻¹.
The matching figures for B2: 13.34 ± 1.78 µM, 4.05 µmol/min/mg, 67.5 ± 7.34 s⁻¹ and 5.06e+06 ± 970000 M⁻¹ s⁻¹.
Consider B3, for which the Km stood at 10.43 ± 1.25 µM, the Vmax is 3.67 µmol/min/mg, the kcat came to 61 ± 8.82 s⁻¹ and the kcat/Km was found to be 5.85e+06 ± 840000 M⁻¹ s⁻¹.

Substrate in the next data set: Oc1cc(O)c2c(c1)O[C@H](c1ccc(O)c(O)c1)[C@H](O)C2
In words: HPLC galloyltransferase assay, Lineweaver-Burk. The format is biochemical, Camellia sinensis. The settings on record: 0.4 mM PGG as donor, potassium phosphate pH 6.0, 30 °C.
B1: the Km turned out to be 64.28 ± 0.81 µM, the Vmax is 20 µmol/min/mg, the kcat amounted to 333 ± 35.2 s⁻¹ and the kcat/Km is 5.19e+06 ± 480000 M⁻¹ s⁻¹.
Regarding B2, the Km came to 85.39 ± 10.62 µM, the Vmax was 16.1 µmol/min/mg, the kcat came out at 269 ± 22.8 s⁻¹ and the kcat/Km was found to be 3.14e+06 ± 640000 M⁻¹ s⁻¹.
Take B3: the Km worked out at 160.41 ± 21.2 µM, the Vmax was 37 µmol/min/mg, the kcat came out at 617 ± 62.5 s⁻¹ and the kcat/Km came out at 3.85e+06 ± 420000 M⁻¹ s⁻¹.

(Values after publication PMC7330524, “Genome-Wide Analysis of Serine Carboxypeptidase-Like Acyltransferase Gene Family for Evolution and Characterization of Enzymes Involved in the Biosynthesis of Galloylated Catechins in the Tea Plant (Camellia sinensis)” (Frontiers in Plant Science, 2020).)
